Sequences and labels used below:
B1: MYT2633 (antibody, V domains shown)
VH: QVQLQQPGAEVVKPGASVKMSCKASGYTFTSYYIHWIKQTPGQGLEWVGVIYPGNDDISYNQKFQGKATLTADKSSTTAYMQLSSLTSEDSAVYYCAREVRLRYFDVWGQGTTVTVSS
VL: EIVLTQSPGSLAVSPGERVTMSCKSSQSVFFSSSQKNYLHWYQQIPGQSPRLLIYWASTRESGVPDRFTGSGSGTDFTLTISSVQPEDLAIYYCHQYLSSRTFGQGTKLEIK
notes: IgG; IMGN779 VL variant #17 (A40H)
B2: MYT2673 (antibody, V domains shown)
VH: QVQLVQSGAEVKKPGASVKVSCKASGYTFTNYDINWVRQAPGQGLEWIGWIYPGDGSTKYNEKFKAKATLTADTSTSTAYMELRSLRSDDTAVYYCASGYEDAMDYWGQGTTVTVSS
VL: DIQMTQSPSSLSASVGDRVTINCKASQDINSYLSWFQQKPGKAPKTLIYRANRLVDGVPSRFSGSGSGQDYTLTISSLQPEDFATYYCLQHDEFPLTFGGGTKVEIK
notes: IgG; vadastuximab VL variant #21 (Y91H)
B3: MYT1364 (antibody, V domains shown)
VH: B2 VH with G99H
VL: B2 VL with H91Y
notes: IgG; vadastuximab VH variant #30 (G99H)
B4: MYT2678 (antibody, V domains shown)
VH: B2 VH
VL: B2 VL with H91Y, L96H
notes: IgG; vadastuximab VL variant #26 (L96H)
B5: MYT1342 (antibody, V domains shown)
VH: B2 VH with D33H
VL: B2 VL with H91Y
notes: IgG; vadastuximab VH variant #8 (D33H)
B6: MYT1344 (antibody, V domains shown)
VH: B2 VH with N35H
VL: B2 VL with H91Y
notes: IgG; vadastuximab VH variant #10 (N35H)
B7: MYT1362 (antibody, V domains shown)
VH: B2 VH with A97H
VL: B2 VL with H91Y
notes: IgG; vadastuximab VH variant #28 (A97H)
B8: MYT2661 (antibody, V domains shown)
VH: B2 VH
VL: B2 VL with Y32H, H91Y
notes: IgG; vadastuximab VL variant #9 (Y32H)
B9: MYT2663 (antibody, V domains shown)
VH: B2 VH
VL: B2 VL with S34H, H91Y
notes: IgG; vadastuximab VL variant #11 (S34H)
B10: IMGN779 (antibody, V domains shown)
VH: B1 VH
VL: B1 VL with H40A
notes: Unconjugated IgG from Expi293 supernatant; entries called heavy/light chain are variable domains; also called MYT1212; IMGN779 starting ABPC
B11: Vadastuximab (antibody, V domains shown)
VH: B2 VH
VL: B2 VL with H91Y
notes: IgG from Expi293 supernatant; entries called heavy/light chain are variable domains; also called MYT1334; vadastuximab starting ABPC
B12: MYT0498 (antibody, V domains shown)
VH: EVQLVQSGAEVKKPGSSVKVSCKASGYTITDSNIHWVRQAPGQSLEWIGYIYPYNHGTDYNQKFKNRATLTVDNPTNTAYMELSSLRSEDTDFYYCVNGNPWLAYWGQGTLVTVSS
VL: DIQLTQSPSTLSASVGDRVTITCRASESLDNYGIRFLTWFQQKPGKAPKLLMYAASNQGSGVPSRFSGSGSGTEFTLTISSLQPDDFATYYCQQTKEVPWSFGQGTKVEVK
notes: IgG; gemtuzumab VH variant #17 (G56H)
B13: MYT0508 (antibody, V domains shown)
VH: B12 VH with H56G, N66H
VL: B12 VL
notes: IgG; gemtuzumab VH variant #27 (N66H)
B14: MYT0512 (antibody, V domains shown)
VH: B12 VH with H56G, N100H
VL: B12 VL
notes: IgG; gemtuzumab VH variant #31 (N100H)
B15: MYT0499 (antibody, V domains shown)
VH: B12 VH with H56G, G57H
VL: B12 VL
notes: IgG; gemtuzumab VH variant #18 (G57H)
B16: MYT0501 (antibody, V domains shown)
VH: B12 VH with H56G, D59H
VL: B12 VL
notes: IgG; gemtuzumab VH variant #20 (D59H)
B17: MYT0514 (antibody, V domains shown)
VH: B12 VH with H56G, W102H
VL: B12 VL
notes: IgG; gemtuzumab VH variant #33 (W102H)
B18: MYT0504 (antibody, V domains shown)
VH: B12 VH with H56G, Q62H
VL: B12 VL
notes: IgG; gemtuzumab VH variant #23 (Q62H)
B19: MYT0500 (antibody, V domains shown)
VH: B12 VH with H56G, T58H
VL: B12 VL
notes: IgG; gemtuzumab VH variant #19 (T58H)
B20: MYT0502 (antibody, V domains shown)
VH: B12 VH with H56G, Y60H
VL: B12 VL
notes: IgG; gemtuzumab VH variant #21 (Y60H)
B21: MYT0507 (antibody, V domains shown)
VH: B12 VH with H56G, K65H
VL: B12 VL
notes: IgG; gemtuzumab VH variant #26 (K65H)
B22: MYT0505 (antibody, V domains shown)
VH: B12 VH with H56G, K63H
VL: B12 VL
notes: IgG; gemtuzumab VH variant #24 (K63H)
B23: MYT0503 (antibody, V domains shown)
VH: B12 VH with H56G, N61H
VL: B12 VL
notes: IgG; gemtuzumab VH variant #22 (N61H)
B24: MYT0516 (antibody, V domains shown)
VH: B12 VH with H56G, A104H
VL: B12 VL
notes: IgG; gemtuzumab VH variant #35 (A104H)
B25: MYT0517 (antibody, V domains shown)
VH: B12 VH with H56G, Y105H
VL: B12 VL
notes: IgG; gemtuzumab VH variant #36 (Y105H)
B26: MYT0510 (antibody, V domains shown)
VH: B12 VH with H56G, N98H
VL: B12 VL
notes: IgG; gemtuzumab VH variant #29 (N98H)
B27: MYT0506 (antibody, V domains shown)
VH: B12 VH with H56G, F64H
VL: B12 VL
notes: IgG; gemtuzumab VH variant #25 (F64H)
B28: MYT0515 (antibody, V domains shown)
VH: B12 VH with H56G, L103H
VL: B12 VL
notes: IgG; gemtuzumab VH variant #34 (L103H)

Numbering of substitutions follows the chain as printed. Names and notes keep the numbering of the source.

For one test, the target named is T1, CD33 (Sino Biological, Cat #12238-H08H) (UniProt P20138 18-259). The test is described as follows: BLI, IgG captured on anti-human Fc sensor, pH 7.4 and pH 5.4. Background: In BLI a coated tip is dipped into the sample, and binding shifts an interference pattern.
T1 sequence (P20138 18-259 limits assumed): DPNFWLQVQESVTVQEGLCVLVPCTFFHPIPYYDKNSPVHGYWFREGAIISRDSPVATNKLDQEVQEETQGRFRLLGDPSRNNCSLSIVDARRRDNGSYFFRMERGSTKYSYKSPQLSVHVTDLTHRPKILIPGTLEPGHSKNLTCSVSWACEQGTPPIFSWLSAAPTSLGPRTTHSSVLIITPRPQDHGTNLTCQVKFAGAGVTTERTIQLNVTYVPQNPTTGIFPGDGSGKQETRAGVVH
Turning to B1, the binding result is “no binding (tested: 50 nM CD33)”.
Turning to B2, the binding result is listed as “no binding (tested: 50 nM CD33)”.
Same read-out and setting: then B3, with “no binding (tested: 50 nM CD33)”; and B4, with “no binding (tested: 50 nM CD33)”.
Regarding B5, the binding result was “no binding (tested: 50 nM CD33)”.
Consider B6, for which the binding result is “no binding (tested: 50 nM CD33)”.
In the case of B7, the binding result is “no binding (tested: 50 nM CD33)”.
B8: the binding result was “no binding (tested: 50 nM CD33)”.
Take B9: the binding result is on record as “no binding (tested: 50 nM CD33)”.

The target in a further test is T1, CD33 (Sino Biological, Cat #12238-H08H). The test is described as follows: BLI, IgG captured on anti-human Fc biosensor, CD33 at low pH or high pH.
Take B10: the binding result is reported as “binds”.
Take B11: the binding result is reported as “binds”.

The target is the same in another test. The test can be described thus: BLI, IgG captured on anti-human Fc sensor, 50 nM CD33, pH 7.4 vs pH 5.0. The source says:
Multiple CD33-binding monoclonal antibodies have been described in the literature and can be used as a template for engineering pH-dependent binding (Hamann P R et al (2002) “Gemtuzumab ozogamicin, a potent and selective anti-CD33 antibody-calicheamicin conjugate for treatment of acute myeloid leukemia.” Bioconjug Chem 13(1):47-58). Gemtuzumab (Heavy chain SEQ ID NO: 1, Light chain SEQ ID NO: 2) was selected as a CD33-binding monoclonal antibody for pH engineering via histidine scanning. Briefly, CDRs in the heavy chain were identified using the methods described by Kabat et al (Kabat et al. (1992) Sequences of Proteins of Immunological Interest, DIANE publishing) and IMGT (Lefranc M P (1999) “The IMGT unique numbering for Immunoglobulins, T cell receptors and Ig-like domains” The Immunologist 7, 132-136), and for each CDR, residues falling under either or both Kabat and IMGT CDR definitions were called as CDR residues. To generate pH-dependent sequence variants, individual amino acid residues within the heavy chain CDRs were systematically substituted with a histidine, one at a time (MYT0482-MYT0517). In cases where the starting CDR residue was a histidine, it was mutated to an alanine. Antibody variants with only one histidine or alanine mutation in a heavy chain CDR were generated by co-transfection of Expi293 cells with a) one heavy chain sequence variant, and b) the corresponding starting ABPC light chain using methods known to the art. After allowing for four days of protein expression, cell culture supernatants were collected, quantified by SDS-PAGE analysis, (FIG. 1), and the pH dependence of the variant was evaluated using biolayer interferometry (BLI) on an Octet RED 384 instrument. Briefly, cell culture supernatants were normalized to an antibody expression level of 25 μg/mL, and captured on an anti-human Fc sensor (Forte Bio). A baseline was established using 1×PBST (50 mM Potassium Phosphate Buffer+150 mM NaCl+0.05% Tween 20) pH 7.4, and the sensor was associated with 50 nM of CD33 (Sino Biological, Cat #12238) in 1×PBST pH 7.4 for 120 sec to generate an association curve. In the dissociation phase, the antibody-antigen complex on the sensor was exposed to 1×PBST pH 7.4 for 300-600 sec. Baseline, association, and dissociation were repeated using 1×MES (100 mM MES Buffer+150 mM NaCl+0.05% Tween 20) pH 5.0 throughout in a separate condition.
B12: the binding result is on record as “binds”.
B13: the binding result is recorded as “binds”.
In the case of B14, the binding result is reported as “binds”.
On the same count and under the same terms, with B15 the entry was “binds”; with B16, “binds”; with B17, “binds”.
Same read-out and setting: then B18, with “binds”; and B19, with “binds”.
Same read-out and setting: then B20, with “binds”; and B21, with “binds”.
Turning to B22, the binding result is on record as “binds”.
With B23, the binding result is “binds”.
Turning to B24, the binding result is “binds”.
B25: the binding result is listed as “binds”.
As for B26, the binding result is listed as “binds”.
Take B27: the binding result is given as “binds”.
As to B28, the binding result is recorded as “binds”.

These data come from patent publication US20220324969A1 (MYTHIC THERAPEUTICS, published 2022).
